This is an account of results in patent US20210284749A1.

The target of this experiment is human BCMA-Fc (R&D system, 193-BC-050) (human) (UniProt Q02223). In words: competition ELISA on coated human BCMA-Fc; antibody titrated and mixed with 200 ng/ml BAFF, bound BAFF detected, absorbance 450 nm. In general terms: An ELISA detects its analyte on a solid surface through an enzyme-linked reagent.
Chain of human BCMA-Fc (R&D system, 193-BC-050) (human) (Q02223 1-54 limits assumed): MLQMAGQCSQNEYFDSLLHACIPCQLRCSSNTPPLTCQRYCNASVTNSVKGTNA

B1: J6MO (antibody, INN chains, looked up, V domains shown)
VH: QVQLVQSGAEVKKPGSSVKVSCKASGGTFSNYWMHWVRQAPGQGLEWMGATYRGHSDTYYNQKFKGRVTITADKSTSTAYMELSSLRSEDTAVYYCARGAIYDGYDVLDNWGQGTLVTVSS
VL: DIQMTQSPSSLSASVGDRVTITCSASQDISNYLNWYQQKPGKAPKLLIYYTSNLHSGVPSRFSGSGSGTDFTLTISSLQPEDFATYYCQQYRKLPWTFGQGTKLEIK
Molecule B1 had an IC50 (read off the curve) of 4 nM.
